± gives the uncertainty stated by the source.
B1: Cyclin-F, residues 28 to 80; numbered along this chain, P41002 (parent)
chain: RNLTILSLPEDVLFHILKWLSVEDILAVRAVHSQLKDLVDNHASVWACASFQE

Variants of: B1
Assay: abundance fitness (aPCA) (normalised: wild type 0, dead -1); higher = more abundant; growth selection in yeast, the domain comes from the species named
Conditions: Homo sapiens

Question: For RNLTILSLPEDVLFHILKWLSVEDILAVRAVHSQLKDLVDNHASVWACASKQE, which abundance fitness is on record?
Answer: Its abundance fitness is -0.202 ± 0.18.

Question: With RNLTILSLPEDVLFHILKWLSVEDILAVRAVHSQLKDLVDNHASVWACASRQE as the variant, how does the abundance fitness read?
Answer: The abundance fitness was -0.187 ± 0.09.

Question: For RNLTILSLPEDVLFHILKWLSVEDILAVRAVHSQLKDLVDNHASVWACASVQE, which abundance fitness is on record?
Answer: Its abundance fitness is -0.034 ± 0.083.

Question: Which abundance fitness does the source give for RNLTILSLPEDVLFHILKWLSVEDILAVRAVHSQLKDLVDNHASVWACASEQE here?
Answer: Its abundance fitness is -0.38 ± 0.14.

Question: For RNLTILSLPEDVLFHILKWLSVEDILAVRAVHSQLKDLVDNHASVWACASGQE, which abundance fitness is on record?
Answer: The abundance fitness was -0.158 ± 0.079.

Question: For RNLTILSLPEDVLFHILKWLSVEDILAVRAVHSQLKDLVDNHASVWACASLQE, which abundance fitness is on record?
Answer: Its abundance fitness is 0.092 ± 0.096.

Question: For RNLTILSLPEDVLFHILKWLSVEDILAVRAVHSQLKDLVDNHASVWACASSQE, which abundance fitness is on record?
Answer: The abundance fitness was -0.194 ± 0.11.

Question: With RNLTILSLPEDVLFHILKWLSVEDILAVRAVHSQLKDLVDNHASVWACASTQE as the variant, how does the abundance fitness read?
Answer: The abundance fitness was -0.014 ± 0.11.

Question: With RNLTILSLPEDVLFHILKWLSVEDILAVRAVHSQLKDLVDNHASVWACASIQE as the variant, how does the abundance fitness read?
Answer: The abundance fitness was -0.111 ± 0.17.

Question: Which abundance fitness does the source give for RNLTILSLPEDVLFHILKWLSVEDILAVRAVHSQLKDLVDNHASVWACASMQE here?
Answer: The abundance fitness was 0.085 ± 0.11.

Question: For RNLTILSLPEDVLFHILKWLSVEDILAVRAVHSQLKDLVDNHASVWACASPQE, which abundance fitness is on record?
Answer: Its abundance fitness is -0.184 ± 0.15.

Question: Which abundance fitness does the source give for RNLTILSLPEDVLFHILKWLSVEDILAVRAVHSQLKDLVDNHASVWACASAQE here?
Answer: Its abundance fitness is -0.138 ± 0.091.

Question: Which abundance fitness does the source give for RNLTILSLPEDVLFHILKWLSVEDILAVRAVHSQLKDLVDNHASVWACASHQE here?
Answer: The abundance fitness was -0.123 ± 0.31.

Question: For RNLTILSLPEDVLFHILKWLSVEDILAVRAVHSQLKDLVDNHASVLACASFQE, which abundance fitness is on record?
Answer: Its abundance fitness is -0.114 ± 0.087.

Question: Which abundance fitness does the source give for RNLTILSLPEDVLFHILKWLSVEDILAVRAVHSQLKDLVDNHASVNACASFQE here?
Answer: Its abundance fitness is -0.128 ± 0.18.

Question: Which abundance fitness does the source give for RNLTILSLPEDVLFHILKWLSVEDILAVRAVHSQLKDLVDNHASVSACASFQE here?
Answer: The abundance fitness was -0.314 ± 0.088.

Question: For RNLTILSLPEDVLFHILKWLSVEDILAVRAVHSQLKDLVDNHASVMACASFQE, which abundance fitness is on record?
Answer: The abundance fitness was -0.27 ± 0.13.

Question: Which abundance fitness does the source give for RNLTILSLPEDVLFHILKWLSVEDILAVRAVHSQLKDLVDNHASVVACASFQE here?
Answer: Its abundance fitness is -0.415 ± 0.1.

Question: Which abundance fitness does the source give for RNLTILSLPEDVLFHILKWLSVEDILAVRAVHSQLKDLVDNHASVAACASFQE here?
Answer: Its abundance fitness is -0.283 ± 0.1.

Question: With RNLTILSLPEDVLFHILKWLSVEDILAVRAVHSQLKDLVDNHASVTACASFQE as the variant, how does the abundance fitness read?
Answer: Its abundance fitness is -0.3 ± 0.1.

Question: For RNLTILSLPEDVLFHILKWLSVEDILAVRAVHSQLKDLVDNHASVIACASFQE, which abundance fitness is on record?
Answer: Its abundance fitness is -0.294 ± 0.13.

Question: With RNLTILSLPEDVLFHILKWLSVEDILAVRAVHSQLKDLVDNHASVFACASFQE as the variant, how does the abundance fitness read?
Answer: Its abundance fitness is -0.364 ± 0.15.

Question: With RNLTILSLPEDVLFHILKWLSVEDILAVRAVHSQLKDLVDNHASVYACASFQE as the variant, how does the abundance fitness read?
Answer: Its abundance fitness is -0.469 ± 0.2.

Question: For RNLTILSLPEDVLFHILKWLSVEDILAVRAVHSQLKDLVDNHASVCACASFQE, which abundance fitness is on record?
Answer: Its abundance fitness is -0.4 ± 0.16.

Question: With RNLTILSLPEDVLFHILKWLSVEDILAVRAVHSQLKDLVDNHASVEACASFQE as the variant, how does the abundance fitness read?
Answer: Its abundance fitness is -0.016 ± 0.13.

Question: With RNLTILSLPEDVLFHILKWLSVEDILAVRAVHSQLKDLVDNHASVGACASFQE as the variant, how does the abundance fitness read?
Answer: The abundance fitness was -0.065 ± 0.084.

Question: For RNLTILSLPEDVLFHILKWLSVEDILAVRAVHSQLKDLVDNHASVRACASFQE, which abundance fitness is on record?
Answer: The abundance fitness was -0.058 ± 0.081.

Question: With RNLTILSLPEDVLFHILKWLSVEDILAVRAVHSQLKDLVDNHASVKACASFQE as the variant, how does the abundance fitness read?
Answer: Its abundance fitness is -0.289 ± 0.2.

Question: For RNLTILSLPEDVLFHILKWLSVEDILAVRAVHSQLKDLVDNHASVHACASFQE, which abundance fitness is on record?
Answer: Its abundance fitness is -0.38 ± 0.17.

Question: With RNLTILSLPEDVLFHILKWLSVEDILAVRAVHSQLKDLVDNHASVQACASFQE as the variant, how does the abundance fitness read?
Answer: The abundance fitness was -0.136 ± 0.15.

Question: For RNLTILSLPEDVLFHILKWLSVEDILAVRAVHSQLKDLVDNHASVDACASFQE, which abundance fitness is on record?
Answer: Its abundance fitness is -0.043 ± 0.15.

Question: With RNLTILSLPEDVLFHILKWLSVEDILAVRAVHSQLKDLVDNHASVPACASFQE as the variant, how does the abundance fitness read?
Answer: The abundance fitness was -0.386 ± 0.13.

Question: Which abundance fitness does the source give for RNLTILSLPEDVLFHILKWLSVEDILAVRAVHSQLKDLVDNHASYWACASFQE here?
Answer: Its abundance fitness is 0.154 ± 0.17.

Question: With RNLTILSLPEDVLFHILKWLSVEDILAVRAVHSQLKDLVDNHASVWCCASFQE as the variant, how does the abundance fitness read?
Answer: The abundance fitness was -0.218 ± 0.13.

Question: Which abundance fitness does the source give for RNLTILSLPEDVLFHILKWLSVEDILAVRAVHSQLKDLVDNHASVWWCASFQE here?
Answer: The abundance fitness was -0.374 ± 0.12.

Question: With RNLTILSLPEDVLFHILKWLSVEDILAVRAVHSQLKDLVDNHASVWHCASFQE as the variant, how does the abundance fitness read?
Answer: The abundance fitness was -0.29 ± 0.26.

Question: Which abundance fitness does the source give for RNLTILSLPEDVLFHILKWLSVEDILAVRAVHSQLKDLVDNHASVWVCASFQE here?
Answer: Its abundance fitness is -0.513 ± 0.12.

Question: Which abundance fitness does the source give for RNLTILSLPEDVLFHILKWLSVEDILAVRAVHSQLKDLVDNHASVWMCASFQE here?
Answer: Its abundance fitness is -0.095 ± 0.13.

Question: For RNLTILSLPEDVLFHILKWLSVEDILAVRAVHSQLKDLVDNHASVWNCASFQE, which abundance fitness is on record?
Answer: The abundance fitness was -0.088 ± 0.21.

Question: With RNLTILSLPEDVLFHILKWLSVEDILAVRAVHSQLKDLVDNHASVWICASFQE as the variant, how does the abundance fitness read?
Answer: Its abundance fitness is -0.178 ± 0.23.

Question: Which abundance fitness does the source give for RNLTILSLPEDVLFHILKWLSVEDILAVRAVHSQLKDLVDNHASVWYCASFQE here?
Answer: Its abundance fitness is -0.458 ± 0.23.

Question: Which abundance fitness does the source give for RNLTILSLPEDVLFHILKWLSVEDILAVRAVHSQLKDLVDNHASVWTCASFQE here?
Answer: Its abundance fitness is -0.43 ± 0.15.

Question: For RNLTILSLPEDVLFHILKWLSVEDILAVRAVHSQLKDLVDNHASVWDCASFQE, which abundance fitness is on record?
Answer: The abundance fitness was -0.062 ± 0.15.

Question: With RNLTILSLPEDVLFHILKWLSVEDILAVRAVHSQLKDLVDNHASVWSCASFQE as the variant, how does the abundance fitness read?
Answer: Its abundance fitness is -0.114 ± 0.13.

Question: For RNLTILSLPEDVLFHILKWLSVEDILAVRAVHSQLKDLVDNHASVWRCASFQE, which abundance fitness is on record?
Answer: Its abundance fitness is -0.14 ± 0.094.

Question: Which abundance fitness does the source give for RNLTILSLPEDVLFHILKWLSVEDILAVRAVHSQLKDLVDNHASVWKCASFQE here?
Answer: The abundance fitness was -0.181 ± 0.16.

Question: For RNLTILSLPEDVLFHILKWLSVEDILAVRAVHSQLKDLVDNHASVWECASFQE, which abundance fitness is on record?
Answer: Its abundance fitness is -0.365 ± 0.14.

Question: Which abundance fitness does the source give for RNLTILSLPEDVLFHILKWLSVEDILAVRAVHSQLKDLVDNHASVWFCASFQE here?
Answer: Its abundance fitness is 0.386 ± 0.18.

Question: For RNLTILSLPEDVLFHILKWLSVEDILAVRAVHSQLKDLVDNHASVWLCASFQE, which abundance fitness is on record?
Answer: Its abundance fitness is -0.235 ± 0.096.

Question: For RNLTILSLPEDVLFHILKWLSVEDILAVRAVHSQLKDLVDNHASVWGCASFQE, which abundance fitness is on record?
Answer: The abundance fitness was 0.193 ± 0.08.

— the Human Domainome abundance scans (Beltran et al. 2025)
